Where no end group is shown, it is not given here.
Experiments:
[1] = target: DnaJB4 (recombinant, human, full length, wild type) (human, UniProt Q9UDY4 1-337); assay: FP
CHIP (recombinant human) = target: T1, CHIP (recombinant human) (human, UniProt Q9UNE7 1-303); assay: FP
T1 chain: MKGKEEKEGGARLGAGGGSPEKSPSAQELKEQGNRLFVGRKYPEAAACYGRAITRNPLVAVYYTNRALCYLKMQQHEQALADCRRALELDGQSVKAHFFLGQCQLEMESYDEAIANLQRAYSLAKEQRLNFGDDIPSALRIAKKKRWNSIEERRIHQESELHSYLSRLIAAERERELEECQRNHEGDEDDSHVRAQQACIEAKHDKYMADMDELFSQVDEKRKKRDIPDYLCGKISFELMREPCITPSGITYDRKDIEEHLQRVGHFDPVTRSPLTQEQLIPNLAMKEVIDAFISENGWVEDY

Chain of DnaJB4 (recombinant, human, full length, wild type) (Q9UDY4 whole entry): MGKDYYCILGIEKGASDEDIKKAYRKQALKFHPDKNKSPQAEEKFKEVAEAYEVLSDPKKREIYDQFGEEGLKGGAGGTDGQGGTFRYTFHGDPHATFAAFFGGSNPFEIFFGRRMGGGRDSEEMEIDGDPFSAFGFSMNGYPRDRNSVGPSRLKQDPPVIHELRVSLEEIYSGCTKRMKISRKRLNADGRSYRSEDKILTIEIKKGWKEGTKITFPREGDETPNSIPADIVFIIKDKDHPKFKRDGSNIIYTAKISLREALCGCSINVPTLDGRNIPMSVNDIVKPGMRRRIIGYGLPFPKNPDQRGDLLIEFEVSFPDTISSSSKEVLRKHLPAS

Kd [1]: 1.68 µM
Kd (CHIP (recombinant human)): 5.04 µM
Binder: GSGPEIEEVD-OH (not fully specified (N-terminus); printed as FITC-Ahx-GSGPEIEEVD) [Hsp72 phosphomimetic T636E tracer FITC-Ahx-GSGPEIEEVD]

— article doi:10.1101/2021.10.18.464838 (2021)
